# Reference: US20160068860A1, “TRANSGENIC PLANTS” (CONSEJO SUPERIOR DE INVESTIGACIONES CIENTIFICAS (CSIC), priority 2013, published 2016)
# T1: PYL4C176R F130Y (AtPYL F130Y and C176R)
# T1 chain: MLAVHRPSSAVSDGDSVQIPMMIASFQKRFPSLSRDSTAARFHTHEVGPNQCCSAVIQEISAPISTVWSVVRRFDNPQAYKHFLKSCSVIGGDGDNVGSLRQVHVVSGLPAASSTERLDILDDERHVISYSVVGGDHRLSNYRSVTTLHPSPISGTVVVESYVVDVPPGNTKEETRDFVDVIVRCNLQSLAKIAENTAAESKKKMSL
# T2: PYL4H82R V97A (AtPYL H82 and V97A)
# T2 chain: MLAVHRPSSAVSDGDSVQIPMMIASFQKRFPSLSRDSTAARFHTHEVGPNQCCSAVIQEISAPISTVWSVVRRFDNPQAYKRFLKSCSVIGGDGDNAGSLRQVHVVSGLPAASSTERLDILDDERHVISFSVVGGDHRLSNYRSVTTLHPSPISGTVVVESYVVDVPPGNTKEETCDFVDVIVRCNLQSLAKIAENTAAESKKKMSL
# T3: PP2CA (clade A protein phosphatase 2C, At3g11410) (Arabidopsis thaliana, UniProt P49598 1-399, limits assumed)
# T3 sequence (looked up): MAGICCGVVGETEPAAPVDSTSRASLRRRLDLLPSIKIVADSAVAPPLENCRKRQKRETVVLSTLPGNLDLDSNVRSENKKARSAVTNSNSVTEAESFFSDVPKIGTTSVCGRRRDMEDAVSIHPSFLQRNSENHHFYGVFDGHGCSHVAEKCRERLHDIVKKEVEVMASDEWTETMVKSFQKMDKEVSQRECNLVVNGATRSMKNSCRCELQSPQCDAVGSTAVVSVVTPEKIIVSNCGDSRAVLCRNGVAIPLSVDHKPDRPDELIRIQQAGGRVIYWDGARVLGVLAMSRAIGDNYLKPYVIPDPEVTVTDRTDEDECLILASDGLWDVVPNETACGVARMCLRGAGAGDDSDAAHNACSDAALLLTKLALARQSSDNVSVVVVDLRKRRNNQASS
# T4: HAB1 (clade A protein phosphatase 2C) (Arabidopsis thaliana, UniProt Q9CAJ0 23-511, limits assumed)
# T4 sequence (looked up): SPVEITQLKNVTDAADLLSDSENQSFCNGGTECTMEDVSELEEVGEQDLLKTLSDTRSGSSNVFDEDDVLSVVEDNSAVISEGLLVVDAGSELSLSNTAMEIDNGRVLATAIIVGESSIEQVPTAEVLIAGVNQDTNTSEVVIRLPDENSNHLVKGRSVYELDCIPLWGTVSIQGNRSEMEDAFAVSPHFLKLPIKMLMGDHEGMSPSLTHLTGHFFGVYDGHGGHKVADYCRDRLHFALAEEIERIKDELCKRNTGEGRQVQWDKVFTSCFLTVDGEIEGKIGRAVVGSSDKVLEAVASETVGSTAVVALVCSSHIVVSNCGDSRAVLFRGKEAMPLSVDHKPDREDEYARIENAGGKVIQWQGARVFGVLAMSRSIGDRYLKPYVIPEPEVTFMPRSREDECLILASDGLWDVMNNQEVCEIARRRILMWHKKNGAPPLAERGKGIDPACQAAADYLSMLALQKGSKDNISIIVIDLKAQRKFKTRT
# Experiments:
# [1] = target: dimeric PYR/PYL receptors; details: read-out: Kd for ABA; cited from earlier work
# [2] = target: monomeric PYR/PYL receptors; details: read-out: Kd for ABA; cited from earlier work
# [3] = target: PYR/PYL receptors in the presence of clade A PP2Cs (ternary complexes); details: ternary complexes in the presence of certain clade A PP2Cs; read-out: Kd for ABA; cited from earlier work
# [4] = target: T1, PYL4C176R F130Y (AtPYL F130Y and C176R)
# [5] = target: T2, PYL4H82R V97A (AtPYL H82 and V97A)
# [6] = target: T3, PP2CA (clade A protein phosphatase 2C, …); experiment: cell-based or functional assay
# [7] = target: T4, HAB1 (clade A protein phosphatase 2C); experiment: cell-based or functional assay
# [8] = tested on: PP2CA; experiment: Yeast two hybrid (Y2H) growth assay with PP2CA; format: cell-based, Arabidopsis; details: for interaction with PP2CA in Y2H assay: absence of ABA, growth on medium lacking His and Ade
# Description: We conducted error-prone PCR mutagenesis by amplification of the PYL4 open reading frame using the following primers: FPYL4Ncol, 5″-GCAGCAGCCATGGTTGCCG TTCACCGTCCTTCT and RPYL4EcoRIstop: […] TCT TCTTCTT, and the following conditions: 2 mM dGTP, dCTP and dTTP, 0.5 mM dATP, 12 mM MgCl2 and Taq polymerase. The PCR product was Ncol-EcoRI doubly digested, cloned into the pGBKT7 vector and DH10B cells were transformed by electroporation. Thus, we generated an allele library in E. coli of approximately 10,000 PYL4 mutant clones. […] The library was shuttled to yeast AH109 by co-transformation with pGAD7-PP2CA. Yeast transformants were pooled and clones able to grow in the absence of exogenous ABA in medium lacking histidine and adenine were selected. Yeast plasmids were extracted, sequenced and retransformed in yeast cells to recapitulate the phenotype. Protocols for yeast two hybrid assays were similar to those described previously (Saez et al., 2008).
# [9] = target: T5, PP2CA (Arabidopsis thaliana, UniProt O80920+P49598, C176R/F130Y); experiment: In vitro phosphatase activity assay with pNPP substrate, PP2CA; format: biochemical; details: presence of ABA
# T5 construct: made in house; host or cells: E. coli BL21 (DE3)
# Description: (§1) Phosphatase activity was measured using as a substrate either pNPP or phosphorylated ΔC-ABF2, ΔC-ABI5 and SLAC11-186 proteins. For the pNPP substrate, assays were performed in a 100 μl solution containing 25 mM Tris-HCl pH 7.5, 2 mM MnCl2 and 5 mM pNPP. Assays contained 2 μM phosphatase (PP2CA or HAB1), 4 μM receptor and the indicated concentrations of ABA. Phosphatase activity was recorded with a ViktorX5 reader at 405 nm every 60 seconds over 30 minutes and the activity obtained after 30 minutes is indicated in the graphics. In order to obtain phosphorylated ΔCABF2, ΔC-ABI5 and SLAC11-186 proteins, OST1 phosphorylation assays were done basically as described previously (Dupeux et al., 2011 b). ΔC-ABF2 and SLAC11-186 N-terminal fragments were prepared as described (Antoni et al., 2012; Vahisalu et al., 2010). ΔC-ABI5 recombinant protein (amino acid residues 1-200, containing the C1, C2 and C3 target sites of ABA-activated SnRK2s) was expressed in the pETM11 vector as described above. The reaction mixture containing the OST1 kinase and either ΔCABF2, ΔC-ABI5 or SLAC11-186 recombinant proteins were incubated for 50 min at room temperature in 30 μl of kinase buffer: 20 mM Tris-HCl pH 7.8, 20 mM MgCl2, 2 mM MnCl2, and 3.5 μCi of γ-32ATP (3000 Ci/mmol). Thus, OST1 was autophosphorylated and in turn it phosphorylated ΔC-ABF2, ΔC-ABI5 and SLAC11-186 proteins. Next, they were used as substrates of PP2CA that was preincubated (or not) for 10 with PYL4 or PYL4A194T (1:10 phosphatase:receptor ratio) either in the absence or presence of 30 μM ABA. The reaction was stopped by adding Laemmli buffer and the proteins were separated by SDS-PAGE using an 8% acrylamide gel and transferred to an Immobilon-P membrane (Millipore). Radioactivity was detected and quantified using a Phosphorimage system (FLA5100, Fujifilm). After scanning, the same membrane was used for Ponceau staining. The data presented are averages of at least three independent experiments.
# [10] = tested on: PP2CA; experiment: as above; format: biochemical, Arabidopsis; details: absence of ABA
# Description: as §1
# [11] = target: T3, PP2CA (clade A protein phosphatase 2C, …); experiment: yeast two-hybrid growth assay, absence of ABA
# [12] = tested on: Arabidopsis thaliana plants; experiment: Seedling establishment and early seedling growth of OE lines on ABA; format: in vivo; details: 0.25 or 0.5 μM ABA
# Excerpt: PYL4 or PYL4 mutants were cloned into pCR8/GW/TOPO entry vector (Invitrogen) and recombined by LR reaction into the gateway compatible ALLIGATOR2 vector (Bensmihen et al., 2004). This construct drives expression of PYL4 under control of the 35S CaMV promoter and introduces a triple HA epitope at the N-terminus of the protein. Selection of transgenic lines is based on the visualization of GFP in seeds, whose expression is driven by the specific seed promoter At2S3. The ALLIGATOR2-35S:3HA-PYL4 or mutant constructs were transferred to Agrobacterium tumefaciens C58C1 (pGV2260) (Deblaere et al., 1985) by electroporation and used to transform Columbia wild type plants by the floral dip method. T1 transgenic seeds were selected based on GFP visualization and sowed in soil to obtain the T2 generation. At least three independent transgenic lines were generated for each construct. Homozygous T3 progeny was used for further studies and expression of HA-tagged protein in 21-d-old seedlings was verified by immunoblot analysis using anti-HA-peroxidase (Roche).
# After surface sterilization of the seeds, stratification was conducted in the dark at 4° C. for 3 d. Approximately 100 seeds of each genotype were sowed on MS plates supplemented with different ABA concentrations per experiment. To score seed germination, radical emergence was analyzed at 72 h after sowing. Seedling establishment was scored as the percentage of seeds that developed green expanded cotyledons and the first pair of true leaves at 7-d.
# [13] = target: T3, PP2CA (clade A protein phosphatase 2C, …); experiment: yeast two-hybrid growth assay, presence of ABA
molecule,measurement,setting,value
"CC1=CC(=O)CC(C)(C)[C@@]1(O)/C=C/C(C)=C\C(=O)O [ABA, abscisic acid]",Kd,[1],> 50000 nM
same,Kd,[2],~1000 nM
same,Kd,[3],30 to 60 nM
"PP2CA (clade A protein phosphatase 2C, At3g11410) (protein) MAGICCGVVGETEPAAPVDSTSRASLRRRLDLLPSIKIVADSAVAPPLENCRKRQKRETVVLSTLPGNLDLDSNVRSENKKARSAVTNSNSVTEAESFFSDVPKIGTTSVCGRRRDMEDAVSIHPSFLQRNSENHHFYGVFDGHGCSHVAEKCRERLHDIVKKEVEVMASDEWTETMVKSFQKMDKEVSQRECNLVVNGATRSMKNSCRCELQSPQCDAVGSTAVVSVVTPEKIIVSNCGDSRAVLCRNGVAIPLSVDHKPDRPDELIRIQQAGGRVIYWDGARVLGVLAMSRAIGDNYLKPYVIPDPEVTVTDRTDEDECLILASDGLWDVVPNETACGVARMCLRGAGAGDDSDAAHNACSDAALLLTKLALARQSSDNVSVVVVDLRKRRNNQASS",PP2CA phosphatase activity (pNPP substrate) in the absence of ABA,[4],"although the H82RV97A and F130Y C176R mutations promoted ABA-independent interactions in Y2H assay, they did not affect PP2CA activity in the absence of ABA"
same,PP2CA phosphatase activity (pNPP substrate) in the absence of ABA,[5],"although the H82RV97A and F130Y C176R mutations promoted ABA-independent interactions in Y2H assay, they did not affect PP2CA activity in the absence of ABA"
AtPYL4 wild type polypeptide (At2g38310) (receptor) MLAVHRPSSAVSDGDSVQIPMMIASFQKRFPSLSRDSTAARFHTHEVGPNQCCSAVIQEISAPISTVWSVVRRFDNPQAYKHFLKSCSVIGGDGDNVGSLRQVHVVSGLPAASSTERLDILDDERHVISFSVVGGDHRLSNYRSVTTLHPSPISGTVVVESYVVDVPPGNTKEETCDFVDVIVRCNLQSLAKIAENTAAESKKKMSL,"IC50 of inhibition of PP2CA phosphatase activity (pNPP substrate; 2 µM phosphatase, 4 µM receptor, ABA concentration varied)",[6],1 µM
same,"IC50 of inhibition of HAB1 phosphatase activity (pNPP substrate; 2 µM phosphatase, 4 µM receptor, ABA concentration varied)",[7],0.25 µM
"PYL4C176R F130Y: AtPYL4 mutant polypeptide with F130Y and C176R substitutions (SEQ ID NO. 63) (protein, listed as Arabidopsis thaliana) MLAVHRPSSAVSDGDSVQIPMMIASFQKRFPSLSRDSTAARFHTHEVGPNQCCSAVIQEISAPISTVWSVVRRFDNPQAYKHFLKSCSVIGGDGDNVGSLRQVHVVSGLPAASSTERLDILDDERHVISYSVVGGDHRLSNYRSVTTLHPSPISGTVVVESYVVDVPPGNTKEETRDFVDVIVRCNLQSLAKIAENTAAESKKKMSL",interaction with PP2CA in Y2H assay,[8],enhanced the interaction of PYL4 and PP2CA in the absence of ABA
same,capacity to inhibit PP2CA,[9],lower capacity to inhibit PP2CA
same,effect on PP2CA activity,[10],did not affect PP2CA activity
"PYL4C176R F130Y (AtPYL F130Y and C176R) (receptor, also called F130Y C176R) MLAVHRPSSAVSDGDSVQIPMMIASFQKRFPSLSRDSTAARFHTHEVGPNQCCSAVIQEISAPISTVWSVVRRFDNPQAYKHFLKSCSVIGGDGDNVGSLRQVHVVSGLPAASSTERLDILDDERHVISYSVVGGDHRLSNYRSVTTLHPSPISGTVVVESYVVDVPPGNTKEETRDFVDVIVRCNLQSLAKIAENTAAESKKKMSL",binding result,[11],binds
PYL4V97A (AtPYL V97A) (receptor) MLAVHRPSSAVSDGDSVQIPMMIASFQKRFPSLSRDSTAARFHTHEVGPNQCCSAVIQEISAPISTVWSVVRRFDNPQAYKHFLKSCSVIGGDGDNAGSLRQVHVVSGLPAASSTERLDILDDERHVISFSVVGGDHRLSNYRSVTTLHPSPISGTVVVESYVVDVPPGNTKEETCDFVDVIVRCNLQSLAKIAENTAAESKKKMSL,interaction with PP2CA in Y2H assay,[8],did not affect the interaction in the absence of ABA
same,yeast growth in Y2H assay with PP2CA,[8]; presence of ABA (50 μM),increased yeast growth
same,ABA-mediated inhibition of seedling establishment,[12],enhanced ABA-mediated inhibition of seedling establishment compared to non-transformed plants
same,binding result,[13],binds
